Reference: PMC4344121
Where no end group is shown, it is not given here. The star is where a group is joined. lipoyl = O=C(CCCC[C@@H]1CCSS1)*

Biological target: T1, N-terminally truncated human SIRT4 (33-314) (human) (UniProt Q9Y6E7)
T1 sequence: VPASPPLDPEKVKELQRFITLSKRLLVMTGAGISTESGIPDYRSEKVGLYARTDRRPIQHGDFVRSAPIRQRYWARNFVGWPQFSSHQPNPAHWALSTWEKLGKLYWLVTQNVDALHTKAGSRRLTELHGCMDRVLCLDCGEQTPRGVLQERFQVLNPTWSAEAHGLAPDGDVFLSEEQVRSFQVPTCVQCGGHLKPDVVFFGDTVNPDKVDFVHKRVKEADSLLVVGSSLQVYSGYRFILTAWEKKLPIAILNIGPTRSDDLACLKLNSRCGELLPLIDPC

Km of delipoylation, steady-state kinetics (HPLC-based assay, SIRT4 5 μM): 239 µM
Binder: EIETDK(lipoyl)ATIGW [DLAT K259 Lipoyl peptide]
